From publication PMC10528150, “Mutant Cytochrome C as a Potential Detector of Superoxide Generation: Effect of Mutations on the Function and Properties” (Cells, 2023)

B1: cytochrome c with substitutions K8E/K27E/E62K/E69K/K72E/K86E/K87E/E90K (natural protein)
chain: not shown
modifications: heme c (hemoporphyrin type c)
B2: cytochrome c wild type (recombinant horse heart CytC) (natural protein)
chain: not shown
modifications: heme c (hemoporphyrin type c, Fe ligated by His18 and Met80)

Target: cytochrome c oxidase (ferrocytochrome c:oxygen oxidoreductase), solubilized complex
Assay: cell-based or functional assay

Binder | Activity in the cytochrome c oxidase reaction, % of WT
B1 | < 1%
B2 | 100%
